# Reference: the supplement of paper PMC10567573
# B1: PDZK1 (parent)
# chain: RETASLKLLPHQPRIVEMKKGSNG
# Variants of: B1
# Assay: protein stability index of a GFP-peptide fusion (GPS, HEK-293T) (PSI 1-6); higher = more stable
# Settings: c terminus: a fixed tail appended
# 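Further: lentivirally expressed fusions sorted by FACS into six bins by GFP to DsRed ratio, PSI derived from sequencing read proportions per bin multiplied by bin number.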
row,Variant,protein stability index
1,RETASLRLLPHQPRIVEMKKGSNG [K7R],4.05
2,RETASLVLLPHQPRIVEMKKGSNG [K7V],3.95
3,RETASLYLLPHQPRIVEMKKGSNG [K7Y],3.4
4,RETASLDLLPHQPRIVEMKKGSNG [K7D],4.97
5,RETASLNLLPHQPRIVEMKKGSNG [K7N],4.86
6,RETASLLLLPHQPRIVEMKKGSNG [K7L],3.98
7,RETASLGLLPHQPRIVEMKKGSNG [K7G],4.32
8,RETASLCLLPHQPRIVEMKKGSNG [K7C],3.89
9,RETASLWLLPHQPRIVEMKKGSNG [K7W],2.72
10,RETASLMLLPHQPRIVEMKKGSNG [K7M],3.9
11,RETASLTLLPHQPRIVEMKKGSNG [K7T],4.66
12,RETASLALLPHQPRIVEMKKGSNG [K7A],4.19
13,RETASLPLLPHQPRIVEMKKGSNG [K7P],4.67
14,RETASLQLLPHQPRIVEMKKGSNG [K7Q],4.74
15,RETASLSLLPHQPRIVEMKKGSNG [K7S],4.29
16,RETASLFLLPHQPRIVEMKKGSNG [K7F],3.07
17,RETASLILLPHQPRIVEMKKGSNG [K7I],3.68
18,RETASLKELPHQPRIVEMKKGSNG [L8E],3.77
19,RETASLKCLPHQPRIVEMKKGSNG [L8C],3.38
20,RETASLKQLPHQPRIVEMKKGSNG [L8Q],4.16
21,RETASLKALPHQPRIVEMKKGSNG [L8A],3.56
22,RETASLKKLPHQPRIVEMKKGSNG [L8K],3.63
23,RETASLKDLPHQPRIVEMKKGSNG [L8D],3.4
24,RETASLKWLPHQPRIVEMKKGSNG [L8W],3.21

row,Variant,protein stability index
1,RETASLKRLPHQPRIVEMKKGSNG [L8R],3.89
2,RETASLKNLPHQPRIVEMKKGSNG [L8N],2.96
3,RETASLKFLPHQPRIVEMKKGSNG [L8F],3.65
4,RETASLKHLPHQPRIVEMKKGSNG [L8H],2.81
5,RETASLKSLPHQPRIVEMKKGSNG [L8S],3.7
6,RETASLKILPHQPRIVEMKKGSNG [L8I],3.34
7,RETASLKMLPHQPRIVEMKKGSNG [L8M],2.75
8,RETASLKPLPHQPRIVEMKKGSNG [L8P],4.25
9,RETASLKYLPHQPRIVEMKKGSNG [L8Y],3.17
10,RETASLKVLPHQPRIVEMKKGSNG [L8V],3.92
11,RETASLKGLPHQPRIVEMKKGSNG [L8G],3.42
12,RETASAKLLPHQPRIVEMKKGSNG [L6A],3.66
13,RETASWKLLPHQPRIVEMKKGSNG [L6W],2.98
14,RETASIKLLPHQPRIVEMKKGSNG [L6I],3.48
15,RETASMKLLPHQPRIVEMKKGSNG [L6M],3.55
16,RETASQKLLPHQPRIVEMKKGSNG [L6Q],3.9
17,RETASDKLLPHQPRIVEMKKGSNG [L6D],3.53
18,RETASFKLLPHQPRIVEMKKGSNG [L6F],3.15
19,RETASHKLLPHQPRIVEMKKGSNG [L6H],3.56
20,RETASEKLLPHQPRIVEMKKGSNG [L6E],3.95
21,RETASRKLLPHQPRIVEMKKGSNG [L6R],3.37
22,RETASYKLLPHQPRIVEMKKGSNG [L6Y],3.56
23,RETASPKLLPHQPRIVEMKKGSNG [L6P],4.18
24,RETASTKLLPHQPRIVEMKKGSNG [L6T],3.63

row,Variant,protein stability index
1,RETASGKLLPHQPRIVEMKKGSNG [L6G],3.69
2,RETASVKLLPHQPRIVEMKKGSNG [L6V],3.54
3,RETASSKLLPHQPRIVEMKKGSNG [L6S],4.01
4,RETASKKLLPHQPRIVEMKKGSNG [L6K],3.64
5,RETASNKLLPHQPRIVEMKKGSNG [L6N],4
6,RETANLKLLPHQPRIVEMKKGSNG [S5N],2.93
7,RETAWLKLLPHQPRIVEMKKGSNG [S5W],2.36
8,RETAFLKLLPHQPRIVEMKKGSNG [S5F],1.88
9,RETATLKLLPHQPRIVEMKKGSNG [S5T],3.39
10,RETARLKLLPHQPRIVEMKKGSNG [S5R],3.38
11,RETADLKLLPHQPRIVEMKKGSNG [S5D],3.77
12,RETAVLKLLPHQPRIVEMKKGSNG [S5V],3.32
13,RETAYLKLLPHQPRIVEMKKGSNG [S5Y],2.47
14,RETAILKLLPHQPRIVEMKKGSNG [S5I],2.82
15,RETALLKLLPHQPRIVEMKKGSNG [S5L],3.73
16,RETAPLKLLPHQPRIVEMKKGSNG [S5P],3
17,RETAQLKLLPHQPRIVEMKKGSNG [S5Q],3.44
18,RETAELKLLPHQPRIVEMKKGSNG [S5E],3.61
19,RETAHLKLLPHQPRIVEMKKGSNG [S5H],2.98
20,RETAGLKLLPHQPRIVEMKKGSNG [S5G],3.26
21,RETAKLKLLPHQPRIVEMKKGSNG [S5K],2.67
22,RETACLKLLPHQPRIVEMKKGSNG [S5C],3.2
23,WETASLKLLPHQPRIVEMKKGSNG [R1W],2.09
24,YETASLKLLPHQPRIVEMKKGSNG [R1Y],3.14

row,Variant,protein stability index
1,RSTASLKLLPHQPRIVEMKKGSNG [E2S],3.62
2,RQTASLKLLPHQPRIVEMKKGSNG [E2Q],3.73
3,RFTASLKLLPHQPRIVEMKKGSNG [E2F],3.45
4,RMTASLKLLPHQPRIVEMKKGSNG [E2M],3.08
5,RYTASLKLLPHQPRIVEMKKGSNG [E2Y],2.64
6,RATASLKLLPHQPRIVEMKKGSNG [E2A],2.73
7,RPTASLKLLPHQPRIVEMKKGSNG [E2P],3.65
8,RTTASLKLLPHQPRIVEMKKGSNG [E2T],3.39
9,RNTASLKLLPHQPRIVEMKKGSNG [E2N],3.57
10,RVTASLKLLPHQPRIVEMKKGSNG [E2V],2.62
11,RCTASLKLLPHQPRIVEMKKGSNG [E2C],2.1
12,RDTASLKLLPHQPRIVEMKKGSNG [E2D],3.4
13,RKTASLKLLPHQPRIVEMKKGSNG [E2K],3.58
14,RWTASLKLLPHQPRIVEMKKGSNG [E2W],2.36
15,RRTASLKLLPHQPRIVEMKKGSNG [E2R],3.63
16,RITASLKLLPHQPRIVEMKKGSNG [E2I],2.23
17,REEASLKLLPHQPRIVEMKKGSNG [T3E],3.65
18,REVASLKLLPHQPRIVEMKKGSNG [T3V],3.25
19,REKASLKLLPHQPRIVEMKKGSNG [T3K],3.53
20,REMASLKLLPHQPRIVEMKKGSNG [T3M],3.14
21,REAASLKLLPHQPRIVEMKKGSNG [T3A],3.26
22,REWASLKLLPHQPRIVEMKKGSNG [T3W],2.58
